The text below walks through data of publication PMC8096850, “Structure of the full-length human Pannexin1 channel and insights into its role in pyroptosis” (Cell Discovery, 2021).

A short description of data set [1]: STED immunofluorescence, THP-1-derived macrophages. To be noted: glycan lost; control: overexpressed WT hPANX1.
Data set [2] deals with the molecule itself. The data set can be described thus: cryo-EM structure; single-particle cryo-EM of purified hPANX1 at about 8 mg/ml in 20 mM Hepes pH 7.4, 150 mM NaCl, 0.1% digitonin; C7 symmetry; 3.15 Å.

B1: human Pannexin1 (hPANX1): N255Q (protein)
parent chain: MAIAQLATEYVFSDFLLKEPTEPKFKGLRLELAVDKMVTCIAVGLPLLLISLAFAQEISIGTQISCFSPSSFSWRQAAFVDSYCWAAVQQKNSLQSESGNLPLWLHKFFPYILLLFAILLYLPPLFWRFAAAPHICSDLKFIMEELDKVYNRAIKAAKSARDLDMRDGACSVPGVTENLGQSLWEVSESHFKYPIVEQYLKTKKNSNNLIIKYISCRLLTLIIILLACIYLGYYFSLSSLSDEFVCSIKSGILRNDSTVPDQFQCKLIAVGIFQLLSVINLVVYVLLAPVVVYTLFVPFRQKTDVLKVYEILPTFDVLHFKSEGYNDLSLYNLFLEENISEVKSYKCLKVLENIKSSGQGIDPMLLLTNLGMIKMDVVDGKTPMSAEMREEQGNQTAELQGMNIDSETKANNGEKNARQRLLDSSC
Regarding B1, in data set [1], the localisation_or_trafficking result was “changes”.

B2: full-length human Pannexin1 with a Strep-tag II inserted after V172 (natural protein, UniProt Q96RD7 1-426, looked up)
chain: B1 parent chain
modifications: N-linked glycan at N255 (two N-acetylglucosamine and eight mannose)
notes: Pannexin1 (PANX1), Homo sapiens, full length; Homo-heptamer; Met1 is absent from the deposited hPANX1-MD model; The termini and the intracellular linker of the model rest on a locally sharpened map and MD flexible fitting; also called hPANX1; PANX1
Turning to B2, the “stoichiometry N” value in data set [2] turned out to be 7.

The stoichiometry N is a count of units in the complex or per binding partner.
